Laboratory results taken from publication PMC9688318, “Construction of a Versatile, Programmable RNA-Binding Protein Using Designer PPR Proteins and Its Application for Splicing Control in Mammalian Cells”.

What was measured:
PPR2.0 t11 [1] = target: T1, PPR2.0 t11 (synthetic); assay: EMSA; 20 mM Tris-HCl pH 8.0, 150 mM NaCl, 0.5% NP-40, 1 mM DTT, 1 mM EDTA; 20 nM RNA; conditions: tags: N-terminal SBP, C-terminal His6, kept; label: biotin
T1 chain: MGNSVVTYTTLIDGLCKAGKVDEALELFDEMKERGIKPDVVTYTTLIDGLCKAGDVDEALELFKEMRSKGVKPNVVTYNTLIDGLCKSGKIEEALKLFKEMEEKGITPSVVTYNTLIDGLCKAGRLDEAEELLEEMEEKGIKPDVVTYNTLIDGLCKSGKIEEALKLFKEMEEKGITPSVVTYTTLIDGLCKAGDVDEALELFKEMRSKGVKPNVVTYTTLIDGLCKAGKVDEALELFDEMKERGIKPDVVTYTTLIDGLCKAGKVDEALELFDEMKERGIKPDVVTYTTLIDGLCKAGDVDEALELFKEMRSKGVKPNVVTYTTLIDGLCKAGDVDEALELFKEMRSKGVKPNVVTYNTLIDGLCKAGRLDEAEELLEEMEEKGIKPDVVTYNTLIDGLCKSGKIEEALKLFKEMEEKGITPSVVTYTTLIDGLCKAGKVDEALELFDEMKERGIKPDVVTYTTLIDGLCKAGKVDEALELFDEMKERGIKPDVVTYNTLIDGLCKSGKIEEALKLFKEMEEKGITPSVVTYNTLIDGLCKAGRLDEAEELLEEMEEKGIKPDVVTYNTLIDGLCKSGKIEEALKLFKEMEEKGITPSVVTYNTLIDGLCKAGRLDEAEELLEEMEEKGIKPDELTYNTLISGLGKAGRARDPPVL

PPR2.0 t11 [2] = target: T1, PPR2.0 t11; assay: 20 mM Tris-HCl pH 8.0, 150 mM NaCl, 0.5% NP-40, 1 mM DTT; conditions: tags: N-terminal NanoLuc, C-terminal His6, kept; label: biotin
PPR2.0 t8 [3] = target: T2, PPR2.0 t8 (synthetic); assay: EMSA; 20 mM Tris-HCl pH 8.0, 150 mM NaCl, 0.5% NP-40, 1 mM DTT, 1 mM EDTA; 20 nM RNA; conditions: tags: N-terminal SBP, C-terminal His6, kept; label: biotin
T2 chain: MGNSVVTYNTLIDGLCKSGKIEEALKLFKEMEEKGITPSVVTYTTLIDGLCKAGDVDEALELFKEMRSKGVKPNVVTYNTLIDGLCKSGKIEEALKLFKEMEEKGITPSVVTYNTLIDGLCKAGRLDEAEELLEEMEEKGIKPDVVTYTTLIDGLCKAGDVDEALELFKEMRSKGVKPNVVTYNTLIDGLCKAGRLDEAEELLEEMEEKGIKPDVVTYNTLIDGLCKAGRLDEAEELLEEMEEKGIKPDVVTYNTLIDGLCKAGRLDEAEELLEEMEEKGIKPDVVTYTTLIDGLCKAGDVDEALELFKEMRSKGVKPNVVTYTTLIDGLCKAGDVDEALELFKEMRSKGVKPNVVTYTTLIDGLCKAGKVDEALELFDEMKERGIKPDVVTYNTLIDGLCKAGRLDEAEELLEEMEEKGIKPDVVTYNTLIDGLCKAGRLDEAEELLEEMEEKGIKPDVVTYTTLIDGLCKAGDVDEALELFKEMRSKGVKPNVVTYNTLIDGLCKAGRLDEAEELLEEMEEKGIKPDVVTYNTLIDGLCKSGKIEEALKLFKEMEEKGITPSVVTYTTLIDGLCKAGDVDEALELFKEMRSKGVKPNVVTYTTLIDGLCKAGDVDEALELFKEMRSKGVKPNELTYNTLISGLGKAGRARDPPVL

PPR2.0 t8 [4] = target: T2, PPR2.0 t8; assay: 20 mM Tris-HCl pH 8.0, 150 mM NaCl, 0.5% NP-40, 1 mM DTT; conditions: tags: N-terminal NanoLuc, C-terminal His6, kept; label: biotin
PPR2.0 t14 [5] = target: T3, PPR2.0 t14 (synthetic); assay: EMSA; 20 mM Tris-HCl pH 8.0, 150 mM NaCl, 0.5% NP-40, 1 mM DTT, 1 mM EDTA; 20 nM RNA; conditions: tags: N-terminal SBP, C-terminal His6, kept; label: biotin
T3 chain: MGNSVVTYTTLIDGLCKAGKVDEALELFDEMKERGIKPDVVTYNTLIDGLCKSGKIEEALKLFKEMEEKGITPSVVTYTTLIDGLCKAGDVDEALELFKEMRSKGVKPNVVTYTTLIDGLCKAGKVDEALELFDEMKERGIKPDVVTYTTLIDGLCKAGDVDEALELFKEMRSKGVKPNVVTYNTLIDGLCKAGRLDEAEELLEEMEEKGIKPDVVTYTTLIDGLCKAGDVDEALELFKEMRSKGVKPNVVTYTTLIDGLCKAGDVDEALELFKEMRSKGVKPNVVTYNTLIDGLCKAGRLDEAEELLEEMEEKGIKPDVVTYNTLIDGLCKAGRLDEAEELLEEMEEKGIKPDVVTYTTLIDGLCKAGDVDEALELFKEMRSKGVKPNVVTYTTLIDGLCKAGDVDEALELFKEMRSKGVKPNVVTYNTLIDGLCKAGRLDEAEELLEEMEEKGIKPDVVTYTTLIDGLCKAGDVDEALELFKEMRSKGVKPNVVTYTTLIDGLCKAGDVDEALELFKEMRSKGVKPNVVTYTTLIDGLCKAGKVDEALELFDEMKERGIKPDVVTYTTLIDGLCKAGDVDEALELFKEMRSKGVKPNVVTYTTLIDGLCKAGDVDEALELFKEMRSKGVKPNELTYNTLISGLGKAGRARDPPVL

PPR2.0 t14 [6] = target: T3, PPR2.0 t14; assay: 20 mM Tris-HCl pH 8.0, 150 mM NaCl, 0.5% NP-40, 1 mM DTT; conditions: tags: N-terminal NanoLuc, C-terminal His6, kept; label: biotin
PPR2.0 t5 [7] = target: T4, PPR2.0 t5 (synthetic); assay: EMSA; 20 mM Tris-HCl pH 8.0, 150 mM NaCl, 0.5% NP-40, 1 mM DTT, 1 mM EDTA; 20 nM RNA; conditions: tags: N-terminal SBP, C-terminal His6, kept; label: biotin
T4 chain: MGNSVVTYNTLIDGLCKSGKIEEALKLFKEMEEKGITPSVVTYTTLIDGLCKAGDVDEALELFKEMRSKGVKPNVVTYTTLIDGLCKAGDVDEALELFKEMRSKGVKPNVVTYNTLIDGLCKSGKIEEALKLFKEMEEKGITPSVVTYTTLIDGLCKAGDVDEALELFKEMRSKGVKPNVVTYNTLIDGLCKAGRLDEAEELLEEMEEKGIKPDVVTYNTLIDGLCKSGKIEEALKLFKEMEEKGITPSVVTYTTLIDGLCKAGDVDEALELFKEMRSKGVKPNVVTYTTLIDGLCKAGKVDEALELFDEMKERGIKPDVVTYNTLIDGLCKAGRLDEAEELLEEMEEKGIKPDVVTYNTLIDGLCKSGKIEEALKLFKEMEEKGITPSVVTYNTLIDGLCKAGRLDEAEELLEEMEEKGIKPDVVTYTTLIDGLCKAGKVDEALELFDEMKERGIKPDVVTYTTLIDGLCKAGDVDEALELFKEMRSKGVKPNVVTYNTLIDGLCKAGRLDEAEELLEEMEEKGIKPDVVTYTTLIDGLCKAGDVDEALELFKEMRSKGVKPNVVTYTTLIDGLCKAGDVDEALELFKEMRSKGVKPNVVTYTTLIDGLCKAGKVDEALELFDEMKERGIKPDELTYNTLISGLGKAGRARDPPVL

PPR2.0 t5 [8] = target: T4, PPR2.0 t5; assay: 20 mM Tris-HCl pH 8.0, 150 mM NaCl, 0.5% NP-40, 1 mM DTT; conditions: tags: N-terminal NanoLuc, C-terminal His6, kept; label: biotin
PPR2.0 t15 [9] = target: T5, PPR2.0 t15 (synthetic); assay: EMSA; 20 mM Tris-HCl pH 8.0, 150 mM NaCl, 0.5% NP-40, 1 mM DTT, 1 mM EDTA; 20 nM RNA; conditions: tags: N-terminal SBP, C-terminal His6, kept; label: biotin
T5 chain: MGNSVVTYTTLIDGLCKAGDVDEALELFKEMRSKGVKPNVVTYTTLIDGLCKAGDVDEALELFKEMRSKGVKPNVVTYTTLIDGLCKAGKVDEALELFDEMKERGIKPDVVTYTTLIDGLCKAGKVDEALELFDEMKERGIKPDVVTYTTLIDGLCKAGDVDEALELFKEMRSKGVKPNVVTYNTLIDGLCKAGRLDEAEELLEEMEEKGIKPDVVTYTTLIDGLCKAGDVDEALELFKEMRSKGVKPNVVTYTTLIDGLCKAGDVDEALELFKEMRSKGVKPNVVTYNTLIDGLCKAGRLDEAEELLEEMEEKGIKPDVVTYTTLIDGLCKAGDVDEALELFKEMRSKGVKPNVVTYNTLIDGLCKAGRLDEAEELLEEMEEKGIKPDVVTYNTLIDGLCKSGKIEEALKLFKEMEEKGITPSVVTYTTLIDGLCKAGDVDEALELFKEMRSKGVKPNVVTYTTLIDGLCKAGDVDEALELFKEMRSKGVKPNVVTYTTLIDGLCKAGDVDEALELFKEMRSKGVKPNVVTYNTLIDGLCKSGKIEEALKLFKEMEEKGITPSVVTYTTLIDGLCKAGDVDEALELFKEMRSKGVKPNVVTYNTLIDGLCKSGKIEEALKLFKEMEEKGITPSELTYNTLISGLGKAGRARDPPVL

PPR2.0 t15 [10] = target: T5, PPR2.0 t15; assay: 20 mM Tris-HCl pH 8.0, 150 mM NaCl, 0.5% NP-40, 1 mM DTT; conditions: tags: N-terminal NanoLuc, C-terminal His6, kept; label: biotin
PPR2.0 t4 [11] = target: T6, PPR2.0 t4 (synthetic); assay: EMSA; 20 mM Tris-HCl pH 8.0, 150 mM NaCl, 0.5% NP-40, 1 mM DTT, 1 mM EDTA; 20 nM RNA; conditions: tags: N-terminal SBP, C-terminal His6, kept; label: biotin
T6 chain: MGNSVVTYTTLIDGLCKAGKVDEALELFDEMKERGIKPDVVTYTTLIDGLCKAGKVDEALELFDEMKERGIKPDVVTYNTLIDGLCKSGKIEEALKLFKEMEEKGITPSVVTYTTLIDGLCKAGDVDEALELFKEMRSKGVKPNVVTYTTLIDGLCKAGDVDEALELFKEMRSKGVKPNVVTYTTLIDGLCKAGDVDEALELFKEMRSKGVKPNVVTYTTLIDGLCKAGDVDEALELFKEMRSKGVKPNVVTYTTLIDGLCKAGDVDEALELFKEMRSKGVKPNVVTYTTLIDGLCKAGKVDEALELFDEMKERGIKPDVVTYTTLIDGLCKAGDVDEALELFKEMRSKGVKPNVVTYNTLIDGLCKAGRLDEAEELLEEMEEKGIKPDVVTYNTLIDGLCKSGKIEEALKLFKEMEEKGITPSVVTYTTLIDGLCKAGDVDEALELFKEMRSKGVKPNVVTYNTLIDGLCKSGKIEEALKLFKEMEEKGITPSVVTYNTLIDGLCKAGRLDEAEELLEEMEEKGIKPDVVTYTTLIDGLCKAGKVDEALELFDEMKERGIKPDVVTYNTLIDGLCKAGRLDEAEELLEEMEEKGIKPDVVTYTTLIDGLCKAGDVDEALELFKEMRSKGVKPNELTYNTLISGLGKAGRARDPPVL

PPR2.0 t4 [12] = target: T6, PPR2.0 t4; assay: 20 mM Tris-HCl pH 8.0, 150 mM NaCl, 0.5% NP-40, 1 mM DTT; conditions: tags: N-terminal NanoLuc, C-terminal His6, kept; label: biotin

B1: Probe_t11 (ssRNA)
RNA: GACAUGCGACUCAGGAAUCGGCUCUGACUG
With B1 the Kd (PPR2.0 t11 [1]) was 63.3 nM and the binding signal (PPR2.0 t11 [2]) was 3.78e+07 RBP-ELISA luminescence, CPS.

B2: Probe_t8 (ssRNA)
RNA: GACAUGCCACUAUUUAAGUUAUCAAGACUG
For B2, the Kd (PPR2.0 t8 [3]) was 1.95 nM and the binding signal (PPR2.0 t8 [4]) was 4.7e+07 RBP-ELISA luminescence, CPS.

B3: Probe_t14 (ssRNA)
RNA: GACAUGCGCAGAUAAUUAAUAAGAAGACUG
For B3, the Kd (PPR2.0 t14 [5]) was 197 nM and the binding signal (PPR2.0 t14 [6]) was 1.33e+07 RBP-ELISA luminescence, CPS.

B4: Probe_t5 (ssRNA)
RNA: GACAUGCCAACAUCAGUCUGAUAAGGACUG
B4 was tested, and the Kd (PPR2.0 t5 [7]) was 167 nM and the binding signal (PPR2.0 t5 [8]) was 1.67e+07 RBP-ELISA luminescence, CPS.

B5: Probe_t15 (ssRNA)
RNA: GACAUGCAAGGAUAAUAUCAAACACGACUG
For B5, the Kd (PPR2.0 t15 [9]) was 41 nM and the binding signal (PPR2.0 t15 [10]) was 2.84e+07 RBP-ELISA luminescence, CPS.

B6: Probe_t4 (ssRNA)
RNA: GACAUGCGGCAAAAAGAUCACUGUAGACUG
With B6 the Kd (PPR2.0 t4 [11]) was 2.57 nM and the binding signal (PPR2.0 t4 [12]) was 5.98e+07 RBP-ELISA luminescence, CPS.
